Measurements: PMC11079029, “Intramolecular autoinhibition regulates the selectivity of PRPF40A tandem WW domains for proline-rich motifs” (Nature Communications, 2024)

System: GFP-tagged PRPF40A-Nter-MUT
Assay: SILAC GFP-immunoprecipitation with quantitative mass spectrometry, mutant construct
Type: binding, human (Hela cells)
Conditions: quantitative MS, Hela cells, protein by gene name
Procedure: The PRPF40A N-terminal region (isoform 2, residues 1-221) was PCR-amplified from RPE1 cDNA (ATCC, Cat# CRL-4000) cDNA. The sequence was amplified in two fragments and both fragments were combined by overhang. All PCRs were carried out using Q5 Polymerase (NEB) according to manufacturer’s protocol. The resulting PRPF40A N-terminal region was cloned into a GFP-expressing pcDNA5 vector (see pcDNA5 GFP vector in ref. [28]) using Q5 Site-Directed Mutagenesis Kit (NEB). Nter-MUT, containing the PPVP/PALPP motifs changed to AAAA/AAAAA, was obtained by mutating the N-ter-WW12-containing plasmid with Q5 site-directed mutagenesis. Plasmids were transformed into DH5alpha chemically competent cells. After culturing, DNA isolation was performed with either ZymoPURE Plasmid Miniprep Kit (Zymo Research) or QIAGEN Plasmid Plus Midi Kit (Qiagen). The sequence was confirmed by Sanger Sequencing (GATC Eurofins). All used oligonucleotides are shown in Supplementary Table 6.
Hela cells (ATCC, Cat# CCL-2, RRID:CVCL_0030) were cultured in DMEM SILAC medium (Thermo Fisher) supplemented with 10% filtered FBS (Sigma-Aldrich) and 1% penicillin-streptomycin (Thermo-Fisher). The SILAC medium contains either light (Arg0, Lys0), medium (Arg6, Lys4) or heavy (Arg10, Lys8) isotopes (Cambridge Isotopes Laboratories). Hela cells were cultivated for 14 days in SILAC medium to assure sufficient isotope incorporation. For transfection, 7 × 10^6 Hela cells were seeded in a 15 cm culture dish in 20 ml of respective SILAC medium and grown for 24 h. The cells were then transfected with 20 µg of plasmids expressing either GFP (Control), GFP-tagged N-ext-WW12 or GFP-tagged-N-ext-WW12-MUT utilizing 64 µl FuGENE (Promega) (ratio 1:3.2), according to manufacturer’s protocol.
24 h post-transfection, cells were washed twice in ice-cold PBS and harvested in 1 ml mRIPA buffer (50 mM Tris, 150 mM NaCl, 1 mM EDTA, 1% NP-40, 0.1% Na-deoxycholate), supplemented with 2 µl Turbo-DNase (Thermo Fisher) and 3 µl protease-inhibitor cocktail cOmplete (Sigma-Aldrich). Cell lysates were cleared by centrifugation at 16,000 × g, 4 °C, 15 min and concentration was measured using Pierce BCA Protein Assay kit (Thermo Scientific). The expressed constructs were pulled down by incubating 2.5 mg of lysate with 20 μl GFP-nanobody agarose beads (ChromoTek, GTA-20) for 1 h at 4 °C under constant agitation. Subsequently, beads were washed three times with mRIPA buffer without supplements, then eluted in 1X NuPAGE LDS sample buffer (Thermo Scientific). To detach the proteins from the beads, the eluate was heated to 70 °C for 10 min To evaluate the success of the immunoprecipitation, input (1%) and IP samples were analyzed on a NuPAGE 4–12% Bis-Tris-Acrylamide gel (Thermo Fisher) using NuPAGE MOPS SDS running buffer (Thermo Fisher). Proteins were stained using Sypro Ruby protein gel stain (Thermo Fisher) according to manufacturer’s protocol.
The eluted proteins of three SILAC states (light, medium, heavy) were combined. The proteins were then reduced in DTT, alkylated in iodoacetamide, and purified using the SP3 paramagnetic bead approach. This was followed by overnight enzymatic digestion using trypsin (1 µg per sample) in 50 mM ammonium bicarbonate at 37 °C. The peptide solution was then purified by solid phase extraction in C18 StageTips[99].
Peptides were separated by online reverse phase liquid chromatography using the EASY-nLC 1000 system (Thermo Scientific) in a 30-cm analytical column (inner diameter: 75 μm; heated at 50 °C) packed in-house with ReproSil-Pur 120 C18-AQ 1.9-μm beads (Dr. Maisch GmbH). The gradient separation was performed through a 105-min non-linear gradient of 1.6–32% acetonitrile with 0.1% formic acid at a nanoflow rate of 225 nl/min. The eluted peptides were sprayed directly by electrospray ionization into a Q Exactive Plus Orbitrap mass spectrometer (Thermo Scientific). […]

B1: MEPCE (protein, UniProt Q7L2J0 1-689, looked up)
7SK snRNA methylphosphate …: MIEMAAEKEPFLVPAPPPPLKDESGGGGGPTVPPHQEAASGELRGGTERGPGRCAPSAGSPAAAVGRESPGAAATSSSGPQAQQHRGGGPQAQSHGEARLSDPPGRAAPPDVGEERRGGGGTELGPPAPPRPRNGYQPHRPPGGGGGKRRNSCNVGGGGGGFKHPAFKRRRRVNSDCDSVLPSNFLLGGNIFDPLNLNSLLDEEVSRTLNAETPKSSPLPAKGRDPVEILIPKDITDPLSLNTCTDEGHVVLASPLKTGRKRHRHRGQHHQQQQAAGGSESHPVPPTAPLTPLLHGEGASQQPRHRGQNRDAPQPYELNTAINCRDEVVSPLPSALQGPSGSLSAPPAASVISAPPSSSSRHRKRRRTSSKSEAGARGGGQGSKEKGRGSWGGRHHHHHPLPAAGFKKQQRKFQYGNYCKYYGYRNPSCEDGRLRVLKPEWFRGRDVLDLGCNVGHLTLSIACKWGPSRMVGLDIDSRLIHSARQNIRHYLSEELRLPPQTLEGDPGAEGEEGTTTVRKRSCFPASLTASRGPIAAPQVPLDGADTSVFPNNVVFVTGNYVLDRDDLVEAQTPEYDVVLCLSLTKWVHLNWGDEGLKRMFRRIYRHLRPGGILVLEPQPWSSYGKRKTLTETIYKNYYRIQLKPEQFSSYLTSPDVGFSSYELVATPHNTSKGFQRPVYLFHKARSPSH
  Immunoprecipitation enrichment MUT vs WT, log2 FC: 1.321

B2: SF3B1 (protein, UniProt O75533 1-1304, looked up)
Splicing factor 3B subunit 1: MAKIAKTHEDIEAQIREIQGKKAALDEAQGVGLDSTGYYDQEIYGGSDSRFAGYVTSIAATELEDDDDDYSSSTSLLGQKKPGYHAPVALLNDIPQSTEQYDPFAEHRPPKIADREDEYKKHRRTMIISPERLDPFADGGKTPDPKMNARTYMDVMREQHLTKEEREIRQQLAEKAKAGELKVVNGAAASQPPSKRKRRWDQTADQTPGATPKKLSSWDQAETPGHTPSLRWDETPGRAKGSETPGATPGSKIWDPTPSHTPAGAATPGRGDTPGHATPGHGGATSSARKNRWDETPKTERDTPGHGSGWAETPRTDRGGDSIGETPTPGASKRKSRWDETPASQMGGSTPVLTPGKTPIGTPAMNMATPTPGHIMSMTPEQLQAWRWEREIDERNRPLSDEELDAMFPEGYKVLPPPAGYVPIRTPARKLTATPTPLGGMTGFHMQTEDRTMKSVNDQPSGNLPFLKPDDIQYFDKLLVDVDESTLSPEEQKERKIMKLLLKIKNGTPPMRKAALRQITDKAREFGAGPLFNQILPLLMSPTLEDQERHLLVKVIDRILYKLDDLVRPYVHKILVVIEPLLIDEDYYARVEGREIISNLAKAAGLATMISTMRPDIDNMDEYVRNTTARAFAVVASALGIPSLLPFLKAVCKSKKSWQARHTGIKIVQQIAILMGCAILPHLRSLVEIIEHGLVDEQQKVRTISALAIAALAEAATPYGIESFDSVLKPLWKGIRQHRGKGLAAFLKAIGYLIPLMDAEYANYYTREVMLILIREFQSPDEEMKKIVLKVVKQCCGTDGVEANYIKTEILPPFFKHFWQHRMALDRRNYRQLVDTTVELANKVGAAEIISRIVDDLKDEAEQYRKMVMETIEKIMGNLGAADIDHKLEEQLIDGILYAFQEQTTEDSVMLNGFGTVVNALGKRVKPYLPQICGTVLWRLNNKSAKVRQQAADLISRTAVVMKTCQEEKLMGHLGVVLYEYLGEEYPEVLGSILGALKAIVNVIGMHKMTPPIKDLLPRLTPILKNRHEKVQENCIDLVGRIADRGAEYVSAREWMRICFELLELLKAHKKAIRRATVNTFGYIAKAIGPHDVLATLLNNLKVQERQNRVCTTVAIAIVAETCSPFTVLPALMNEYRVPELNVQNGVLKSLSFLFEYIGEMGKDYIYAVTPLLEDALMDRDLVHRQTASAVVQHMSLGVYGFGCEDSLNHLLNYVWPNVFETSPHVIQAVMGALEGLRVAIGPCRMLQYCLQGLFHPARKVRDVYWKIYNSIYIGSQDALIAHYPRIYNDDKNTYIRYELDYIL
  Immunoprecipitation enrichment MUT vs WT, log2 FC: 0.9931

B3: ATXN10 (protein, UniProt Q9UBB4 1-475, looked up)
Ataxin-10: MAAPRPPPARLSGVMVPAPIQDLEALRALTALFKEQRNRETAPRTIFQRVLDILKKSSHAVELACRDPSQVENLASSLQLITECFRCLRNACIECSVNQNSIRNLDTIGVAVDLILLFRELRVEQESLLTAFRCGLQFLGNIASRNEDSQSIVWVHAFPELFLSCLNHPDKKIVAYSSMILFTSLNHERMKELEENLNIAIDVIDAYQKHPESEWPFLIITDLFLKSPELVQAMFPKLNNQERVTLLDLMIAKITSDEPLTKDDIPVFLRHAELIASTFVDQCKTVLKLASEEPPDDEEALATIRLLDVLCEMTVNTELLGYLQVFPGLLERVIDLLRVIHVAGKETTNIFSNCGCVRAEGDISNVANGFKSHLIRLIGNLCYKNKDNQDKVNELDGIPLILDNCNISDSNPFLTQWVIYAIRNLTEDNSQNQDLIAKMEEQGLADASLLKKVGFEVEKKGEKLILKSTRDTPKP
  Immunoprecipitation enrichment MUT vs WT, log2 FC: 1.57

B4: DDX20 (protein, UniProt Q9UHI6 1-824, looked up)
Probable ATP-dependent RNA …: MAAAFEASGALAAVATAMPAEHVAVQVPAPEPTPGPVRILRTAQDLSSPRTRTGDVLLAEPADFESLLLSRPVLEGLRAAGFERPSPVQLKAIPLGRCGLDLIVQAKSGTGKTCVFSTIALDSLVLENLSTQILILAPTREIAVQIHSVITAIGIKMEGLECHVFIGGTPLSQDKTRLKKCHIAVGSPGRIKQLIELDYLNPGSIRLFILDEADKLLEEGSFQEQINWIYSSLPASKQMLAVSATYPEFLANALTKYMRDPTFVRLNSSDPSLIGLKQYYKVVNSYPLAHKVFEEKTQHLQELFSRIPFNQALVFSNLHSRAQHLADILSSKGFPAECISGNMNQNQRLDAMAKLKHFHCRVLISTDLTSRGIDAEKVNLVVNLDVPLDWETYMHRIGRAGRFGTLGLTVTYCCRGEEENMMMRIAQKCNINLLPLPDPIPSGLMEECVDWDVEVKAAVHTYGIASVPNQPLKKQIQKIERTLQIQKAHGDHMASSRNNSVSGLSVKSKNNTKQKLPVKSHSECGIIEKATSPKELGCDRQSEEQMKNSVQTPVENSTNSQHQVKEALPVSLPQIPCLSSFKIHQPYTLTFAELVEDYEHYIKEGLEKPVEIIRHYTGPGDQTVNPQNGFVRNKVIEQRVPVLASSSQSGDSESDSDSYSSRTSSQSKGNKSYLEGSSDNQLKDSESTPVDDRISLEQPPNGSDTPNPEKYQESPGIQMKTRLKEGASQRAKQSRRNLPRRSSFRLQTEAQEDDWYDCHREIRLSFSDTYQDYEEYWRAYYRAWQEYYAAASHSYYWNAQRHPSWMAAYHMNTIYLQEMMHSNQ
  Immunoprecipitation enrichment MUT vs WT, log2 FC: 1.113

B5: HNRNPUL1 (protein, UniProt Q9BUJ2 1-856, looked up)
Heterogeneous nuclear …: MDVRRLKVNELREELQRRGLDTRGLKAELAERLQAALEAEEPDDERELDADDEPGRPGHINEEVETEGGSELEGTAQPPPPGLQPHAEPGGYSGPDGHYAMDNITRQNQFYDTQVIKQENESGYERRPLEMEQQQAYRPEMKTEMKQGAPTSFLPPEASQLKPDRQQFQSRKRPYEENRGRGYFEHREDRRGRSPQPPAEEDEDDFDDTLVAIDTYNCDLHFKVARDRSSGYPLTIEGFAYLWSGARASYGVRRGRVCFEMKINEEISVKHLPSTEPDPHVVRIGWSLDSCSTQLGEEPFSYGYGGTGKKSTNSRFENYGDKFAENDVIGCFADFECGNDVELSFTKNGKWMGIAFRIQKEALGGQALYPHVLVKNCAVEFNFGQRAEPYCSVLPGFTFIQHLPLSERIRGTVGPKSKAECEILMMVGLPAAGKTTWAIKHAASNPSKKYNILGTNAIMDKMRVMGLRRQRNYAGRWDVLIQQATQCLNRLIQIAARKKRNYILDQTNVYGSAQRRKMRPFEGFQRKAIVICPTDEDLKDRTIKRTDEEGKDVPDHAVLEMKANFTLPDVGDFLDEVLFIELQREEADKLVRQYNEEGRKAGPPPEKRFDNRGGGGFRGRGGGGGFQRYENRGPPGGNRGGFQNRGGGSGGGGNYRGGFNRSGGGGYSQNRWGNNNRDNNNSNNRGSYNRAPQQQPPPQQPPPPQPPPQQPPPPPSYSPARNPPGASTYNKNSNIPGSSANTSTPTVSSYSPPQPSYSQPPYNQGGYSQGYTAPPPPPPPPPAYNYGSYGGYNPAPYTPPPPPTAQTYPQPSYNQYQQYAQQWNQYYQNQGQWPPYYGNYDYGSYSGNTQGGTSTQ
  Immunoprecipitation enrichment MUT vs WT, log2 FC: 1.072
